Test results reported in US20180244785A1 (MERRIMACK PHARMACEUTICALS, published 2018).

T1: soluble FGFR1c receptor protein (human, UniProt P11362 141-376)
T1 sequence: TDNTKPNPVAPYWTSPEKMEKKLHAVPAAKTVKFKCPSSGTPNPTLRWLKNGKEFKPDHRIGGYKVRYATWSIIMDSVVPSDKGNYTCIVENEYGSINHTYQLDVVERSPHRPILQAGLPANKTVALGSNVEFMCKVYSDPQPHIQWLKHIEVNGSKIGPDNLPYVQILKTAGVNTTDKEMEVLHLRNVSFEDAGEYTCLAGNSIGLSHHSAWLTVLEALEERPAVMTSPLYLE

T2: soluble FGFR4 receptor protein (human, UniProt P22455 144-369)
T2 sequence: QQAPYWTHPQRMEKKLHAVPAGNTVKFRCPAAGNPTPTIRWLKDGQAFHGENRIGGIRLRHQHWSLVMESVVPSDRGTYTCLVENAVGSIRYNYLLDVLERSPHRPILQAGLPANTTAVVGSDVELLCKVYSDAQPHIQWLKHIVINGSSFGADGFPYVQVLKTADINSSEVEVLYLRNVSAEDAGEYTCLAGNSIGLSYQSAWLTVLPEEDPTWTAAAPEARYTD

T3: soluble FGFR3c receptor protein (human, UniProt P22607 141-372)
T3 sequence: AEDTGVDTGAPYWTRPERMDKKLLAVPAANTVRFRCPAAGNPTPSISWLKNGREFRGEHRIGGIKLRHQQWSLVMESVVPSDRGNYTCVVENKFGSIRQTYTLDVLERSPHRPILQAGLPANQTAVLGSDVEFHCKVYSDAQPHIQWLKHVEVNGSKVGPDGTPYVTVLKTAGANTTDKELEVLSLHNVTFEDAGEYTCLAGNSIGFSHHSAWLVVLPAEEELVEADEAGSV


Key:
Experiment in all cases: BLI Octet RED96, antibody on anti-hIgG Fc tip
[1] = biological target: T1, soluble FGFR1c receptor protein
Method: (§1) Briefly, the Pall ForteBio Octet RED96 Bio-Layer Interferometry system was used to determine the specificity of anti-FGFR antibodies for FGFR1c, FGFR2c, FGFR3c, and FGFR4. The antibodies and soluble receptor proteins were prepared in PBS at a concentration of 300 nM. First, the candidate antibodies were immobilized on the surface of anti-human IgG Fc biosensor tips for 120 seconds. After immobilization, the biosensors were dipped in PBS solution for 60 seconds (baseline step) to assess assay drift, and determine loading level of antibodies. The baseline step was followed by an association step of 300 seconds wherein the binding interaction between the immobilized antibodies and soluble receptors was measured. Following the association step, the biosensors were dipped into PBS buffer for 600 seconds to measure the dissociation of the bound receptor proteins from the immobilized antibodies. Each binding response was measured and reported real time on a sensorgram trace. For data analysis, a simple 1:1 binding model was used which measures the rate of complex formation of one immobilized antibody and one soluble receptor protein.

[2] = biological target: soluble FGFR2c receptor protein (human, UniProt P21802 148-377)
Method: as §1

[3] = biological target: T2, soluble FGFR4 receptor protein
Method: as §1

[4] = biological target: T3, soluble FGFR3c receptor protein
Method: as §1

soluble FGFR2c receptor protein, sequence (P21802 148-377): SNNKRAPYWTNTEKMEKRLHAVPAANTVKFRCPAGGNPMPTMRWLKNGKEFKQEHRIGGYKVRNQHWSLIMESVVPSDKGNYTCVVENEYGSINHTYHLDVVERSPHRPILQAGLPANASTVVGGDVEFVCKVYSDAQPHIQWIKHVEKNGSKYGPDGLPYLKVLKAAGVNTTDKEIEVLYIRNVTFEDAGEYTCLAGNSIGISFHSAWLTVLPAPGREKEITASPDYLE

Binder | Kd [1] | koff [1] | kon [1] | Kd [2] | koff [2] | kon [2] | Kd [3] | koff [3] | kon [3] | Kd [4] | koff [4] | kon [4]
Vk2 combined with the VH of Ab15 (antibody, V domains shown, captured on anti-human IgG Fc tips) VH: EVQLLESGGGVVQPGRSLRLSCAASGFTFSSYAMHWVRQAPGKGLEWVAVISYDGSNKYYADSVKGRFTISRDNSKNTLSLQMNSLRVEDTAIYYCVRGAGRGYTYGPDGFDIWGQGTMVTVSS VL: DIVMTQTPLSLSVTPGQPASISCTSSRSLLHSDGKTYVYWYLQKPGQPPQLLIYELSNRFSGVPDRFSGSGSRTDFTLKISRVEAEDVGVYYCMQYIEAPLTFGGGTKVEIK | 5.74 nM | 0.000313 s⁻¹ | 54500 M⁻¹ s⁻¹ | 10.8 nM | 0.00228 s⁻¹ | 211000 M⁻¹ s⁻¹ | 7.06 nM | 0.000888 s⁻¹ | 126000 M⁻¹ s⁻¹ | 9.2 nM | 0.0011 s⁻¹ | 120000 M⁻¹ s⁻¹
Vk7 combined with the VH of Ab15 (antibody, V domains shown, captured on anti-human IgG Fc tips) VH: EVQLLESGGGVVQPGRSLRLSCAASGFTFSSYAMHWVRQAPGKGLEWVAVISYDGSNKYYADSVKGRFTISRDNSKNTLSLQMNSLRVEDTAIYYCVRGAGRGYTYGPDGFDIWGQGTMVTVSS VL: DIVMTQSPLSLPVTPGEPASISCKSSQSLLHSDGKTYLYWYLQKPGQPPQLLIYELSNRFSGVPDRFSGSGSGTDFTLKISRVEAEDVGVYYCMQYIEAPLTFGGGTKVEIK | 5.84 nM | 0.000336 s⁻¹ | 57600 M⁻¹ s⁻¹ | 13.1 nM | 0.00274 s⁻¹ | 210000 M⁻¹ s⁻¹ | 8.33 nM | 0.00101 s⁻¹ | 121000 M⁻¹ s⁻¹ | 8.7 nM | 0.00104 s⁻¹ | 120000 M⁻¹ s⁻¹
Vh1 combined with the VL of Ab15 (antibody, V domains shown, captured on anti-human IgG Fc tips) VH: EVQLVESGGGVVQPGRSLRLSCAASGFTFSSYAMHWVRQAPGKGLEWVAVISYDGSNKYYADSVKGRFTISRDNSKNTLYLQMNSLRAEDTAIYYCVRGAGRGYTYGPDGFDIWGQGTMVTVSS VL: DIVMTQTPLSLSVTPGQPASISCTSSRSLLHSDGKTYVYWYVQKSGQPPQLLIYELSNRFSGVPDRFSGSGSRTDFTLKISRVEAEDVGVYYCMQYIEAPLTFGGGTKVEIK | 7.49 nM | 0.000356 s⁻¹ | 47500 M⁻¹ s⁻¹ | 10.9 nM | 0.0024 s⁻¹ | 221000 M⁻¹ s⁻¹ | 4.01 nM | 0.000682 s⁻¹ | 170000 M⁻¹ s⁻¹ | 8.56 nM | 0.001 s⁻¹ | 117000 M⁻¹ s⁻¹
Vk12 combined with the VH of Ab15 (antibody, V domains shown, captured on anti-human IgG Fc tips) VH: EVQLLESGGGVVQPGRSLRLSCAASGFTFSSYAMHWVRQAPGKGLEWVAVISYDGSNKYYADSVKGRFTISRDNSKNTLSLQMNSLRVEDTAIYYCVRGAGRGYTYGPDGFDIWGQGTMVTVSS VL: DIVMTQSPLSLPVTPGEPASISCTSSRSLLHSDGKTYVYWYLQKPGQSPQLLIYELSNRFSGVPDRFSGSGSGTDFTLKISRVEAEDVGVYYCMQYIEAPLTFGGGTKVEIK | 6.51 nM | 0.000345 s⁻¹ | 53000 M⁻¹ s⁻¹ | 9.76 nM | 0.0021 s⁻¹ | 215000 M⁻¹ s⁻¹ | 7.01 nM | 0.000925 s⁻¹ | 132000 M⁻¹ s⁻¹ | 6.38 nM | 0.000806 s⁻¹ | 126000 M⁻¹ s⁻¹
Vk11 combined with the VH of Ab15 (antibody, V domains shown, captured on anti-human IgG Fc tips) VH: EVQLLESGGGVVQPGRSLRLSCAASGFTFSSYAMHWVRQAPGKGLEWVAVISYDGSNKYYADSVKGRFTISRDNSKNTLSLQMNSLRVEDTAIYYCVRGAGRGYTYGPDGFDIWGQGTMVTVSS VL: DIVMTQSPLSLPVTPGEPASISCTSSRSLLHSDGKTYVYWYLQKPGQSPQVLIYELSNRFSGVPDRFSGSGSGTDFTLKISRVEAEDVGVYYCMQYIEAPLTFGGGTKVEIK | 7.62 nM | 0.000327 s⁻¹ | 42900 M⁻¹ s⁻¹ | 10.9 nM | 0.00231 s⁻¹ | 212000 M⁻¹ s⁻¹ | 8.47 nM | 0.00106 s⁻¹ | 125000 M⁻¹ s⁻¹ | 11.1 nM | 0.0013 s⁻¹ | 117000 M⁻¹ s⁻¹
Vk6 combined with the VH of Ab15 (antibody, V domains shown, captured on anti-human IgG Fc tips) VH: EVQLLESGGGVVQPGRSLRLSCAASGFTFSSYAMHWVRQAPGKGLEWVAVISYDGSNKYYADSVKGRFTISRDNSKNTLSLQMNSLRVEDTAIYYCVRGAGRGYTYGPDGFDIWGQGTMVTVSS VL: DIVMTQTPLSLSVTPGQPASISCKSSQSLLHSDGKTYLYWYLQKPGQPPQLLIYELSNRFSGVPDRFSGSGSGTDFTLKISRVEAEDVGVYYCMQYIEAPLTFGGGTKVEIK | 6.45 nM | 0.000344 s⁻¹ | 53400 M⁻¹ s⁻¹ | 14.3 nM | 0.00313 s⁻¹ | 219000 M⁻¹ s⁻¹ | 9.31 nM | 0.00112 s⁻¹ | 120000 M⁻¹ s⁻¹ | 12.9 nM | 0.00157 s⁻¹ | 121000 M⁻¹ s⁻¹

Now those with a lower Kd [1], led by results:

Kd [1] | koff [1] | kon [1] | Kd [2] | koff [2] | kon [2] | Kd [3] | koff [3] | kon [3] | Kd [4] | koff [4] | kon [4] | Binder
2.39 nM | 0.000137 s⁻¹ | 57200 M⁻¹ s⁻¹ | 7.35 nM | 0.00172 s⁻¹ | 234000 M⁻¹ s⁻¹ | 4.89 nM | 0.000692 s⁻¹ | 142000 M⁻¹ s⁻¹ | 5.43 nM | 0.000749 s⁻¹ | 138000 M⁻¹ s⁻¹ | Vk9 combined with the VH of Ab15 (antibody, V domains shown, captured on anti-human IgG Fc tips) VH: EVQLLESGGGVVQPGRSLRLSCAASGFTFSSYAMHWVRQAPGKGLEWVAVISYDGSNKYYADSVKGRFTISRDNSKNTLSLQMNSLRVEDTAIYYCVRGAGRGYTYGPDGFDIWGQGTMVTVSS VL: DIVMTQSPDSLAVSLGERATINCKSSQSLLHSDGKTYVYWYQQKPGQPPKLLIYELSNRFSGVPDRFSGSGSGTDFTLTISSLQAEDVAVYYCMQYIEAPLTFGGGTKVEIK
5.41 nM | 0.000269 s⁻¹ | 49700 M⁻¹ s⁻¹ | 7.55 nM | 0.00156 s⁻¹ | 207000 M⁻¹ s⁻¹ | 2.84 nM | 0.000492 s⁻¹ | 173000 M⁻¹ s⁻¹ | 6.41 nM | 0.000775 s⁻¹ | 121000 M⁻¹ s⁻¹ | Vh2 combined with the VL of Ab15 (antibody, V domains shown, captured on anti-human IgG Fc tips) VH: EVQLVESGGGVVQPGRSLRLSCAASGFTFSSYAMHWVRQAPGKGLEWVAVISYDGSNKYYADSVKGRFTISRDNSKNTLYLQMNSLRAEDTAVYYCARGAGRGYTYGPDGFDIWGQGTMVTVSS VL: DIVMTQTPLSLSVTPGQPASISCTSSRSLLHSDGKTYVYWYVQKSGQPPQLLIYELSNRFSGVPDRFSGSGSRTDFTLKISRVEAEDVGVYYCMQYIEAPLTFGGGTKVEIK
4.7 nM | 0.000243 s⁻¹ | 51700 M⁻¹ s⁻¹ | 12.7 nM | 0.00245 s⁻¹ | 193000 M⁻¹ s⁻¹ | 8.75 nM | 0.00105 s⁻¹ | 120000 M⁻¹ s⁻¹ | 12.3 nM | 0.00138 s⁻¹ | 113000 M⁻¹ s⁻¹ | Vk1 combined with the VH of Ab15 (antibody, V domains shown, captured on anti-human IgG Fc tips) VH: EVQLLESGGGVVQPGRSLRLSCAASGFTFSSYAMHWVRQAPGKGLEWVAVISYDGSNKYYADSVKGRFTISRDNSKNTLSLQMNSLRVEDTAIYYCVRGAGRGYTYGPDGFDIWGQGTMVTVSS VL: DIVMTQTPLSLSVTPGQPASISCTSSRSLLHSDGKTYLYWYLQKPGQPPQLLIYELSNRFSGVPDRFSGSGSRTDFTLKISRVEAEDVGVYYCMQYIEAPLTFGGGTKVEIK
3.98 nM | 0.000215 s⁻¹ | 54100 M⁻¹ s⁻¹ | 8.88 nM | 0.00176 s⁻¹ | 198000 M⁻¹ s⁻¹ | 6.05 nM | 0.000752 s⁻¹ | 124000 M⁻¹ s⁻¹ | 7 nM | 0.000891 s⁻¹ | 127000 M⁻¹ s⁻¹ | Vk5 combined with the VH of Ab15 (antibody, V domains shown, captured on anti-human IgG Fc tips) VH: EVQLLESGGGVVQPGRSLRLSCAASGFTFSSYAMHWVRQAPGKGLEWVAVISYDGSNKYYADSVKGRFTISRDNSKNTLSLQMNSLRVEDTAIYYCVRGAGRGYTYGPDGFDIWGQGTMVTVSS VL: DIVMTQTPLSLSVTPGQPASISCRSSRSLLHSDGKTYVYWYLQKPGQPPQLLIYELSNRFSGVPDRFSGSGSGTDFTLKISRVEAEDVGVYYCMQYIEAPLTFGGGTKVEIK
4.79 nM | 0.000262 s⁻¹ | 54600 M⁻¹ s⁻¹ | 10.3 nM | 0.0022 s⁻¹ | 214000 M⁻¹ s⁻¹ | 6.79 nM | 0.000855 s⁻¹ | 126000 M⁻¹ s⁻¹ | 7.97 nM | 0.00101 s⁻¹ | 126000 M⁻¹ s⁻¹ | Vk3 combined with the VH of Ab15 (antibody, V domains shown, captured on anti-human IgG Fc tips) VH: EVQLLESGGGVVQPGRSLRLSCAASGFTFSSYAMHWVRQAPGKGLEWVAVISYDGSNKYYADSVKGRFTISRDNSKNTLSLQMNSLRVEDTAIYYCVRGAGRGYTYGPDGFDIWGQGTMVTVSS VL: DIVMTQTPLSLSVTPGQPASISCTSSRSLLHSDGKTYVYWYLQKSGQPPQLLIYELSNRFSGVPDRFSGSGSRTDFTLKISRVEAEDVGVYYCMQYIEAPLTFGGGTKVEIK
